The subject of series [1] is HL-1 cells. In words: Autophagy scored by intracellular distribution of GFP-LC3 (fluorescence microscopy) in HL-1 cells. The format is cell-based, murine. Particulars: for modulation of autophagy: HL-1 cells transfected with LC3GFP, treated with Tat protein (FIG. 18).
Series [2] concerns HL-1 cells. The experiment in a line: Protection in cell culture by recombinant Tat-Beclin1. The format is cell-based.
For series [3], the system named is HL-1 cells. In words: Cell death by LDH release after simulated ischemia/reperfusion (sI/R) in HL-1 cells. The class given is cell-based, murine. On the procedure:
Cells of the murine atrial-derived cardiac cell line HL-1^16 were plated in gelatin/fibronectin-coated culture vessels and maintained in Claycomb medium^16 (JRH Biosciences, Lenexa, Kans.) supplemented with 10% fetal bovine serum, 0.1 mm norepinephrine, 2 mm […], 100 U·mL^-1 penicillin, 100 U·mL^-1 streptomycin, and 0.25 μg·mL^-1 amphotericin B. Cells were plated in 14-mm diameter glass bottom microwell dishes (MatTek), and ischemia was introduced by a buffer exchange to ischemia-mimetic solution (in mM: 20deoxyglucose, 125 NaCl, 8 KCl, 1.2 KH2PO4, 1.25 MgSO4, 1.2 CaCl2, 6.25 NaHCO2, 5 sodium lactate, 20 HEPES, pH 6.6) and placing the dishes in hypoxic pouches (GasPakTM EZ, BD Biosciences) equilibrated with 95% N2, 5% CO2. After 2 hr of simulated ischemia, reperfusion was initiated by a buffer exchange to normoxic MKH buffer and incubation at 95% room air, 5% CO2. […] Protein content and LDH activity were determined according to El-Ani et al.^20. Briefly, 25 μl supernatants from 35 mm dishes were transferred into wells of a 96-well plate, and the LDH activities were determined with an LDH-L kit (Sigma), according to the manufacturer. The product of the enzyme was measured spectrophotometrically at 30° C. at a wavelength of 340 nm as described previously^21. […]

In series [4] the test system is adult rat cardiomyocytes. In words: Autophagy (GFP-LC3 puncta) in adult rat cardiomyocytes. Particulars: Tat protein 30 min before CCPA. The class given is cell-based.
Series [5] relates to isolated perfused rat hearts. The experiment in a line: Langendorff global ischemia/reperfusion injury in isolated perfused rat hearts (CK release, TTC infarct size, hemodynamics).
Series [6] concerns isolated perfused rat hearts. In words: Autophagy in isolated perfused rat hearts (LC3-II/LC3-I Western blot, cadaverine dye binding). Particulars: Tat protein approximately 200 nM before SUL. (In general: In western blotting, separated proteins are transferred to a membrane and probed.)
Series [7] has as its system adult rat cardiomyocytes.

B1: Tat-Beclin1: cell-permeable recombinant Tat fusion of rat Beclin 1; stimulant or activator of autophagy (protein)
chain: MRGSHHHHHHGMASMTGGQQMGRDLYDDDDKDRWGSKLGYGRKKRRQRRRGGSTMSGYPYDVPDYAGSMAGTGLEMEGSKASSSTMQVSFVCQRCSQPLKLDTSFKILDRVTIQELTAPLLTTAQAKPGESQEEEANSGEEPFIETRQDGVSRRFIPPARMMSTESANSFTLIGEASDGGTMENLSRRLKVTGDLFDIMSGQTDVDHPLCEECTDTLLDQLDTQLNVTENECQNYKRCLEMLEQMNEGDSEQLQRELKELALEEERLIQELEDVEKNRKVVAENLEKVQAEAERLDQEEAQYQREYSEFKRQQLELDDELKSVENQMRYAQMQLDKLKKTNVFNATFHIWHSGQFGTINNFRLGRLPSAPVEWNEINAAWGQTVLLLHALANKMGLKFQRYRLVPYGNHSYLESLTDKSKELPLYCSGGLRFFWDNKFDHAMVAFLDCVQQFKEEVEKGETRFCLPYRMDVEKGKIEDTGGSGGSYSIKTQFNSEEQWTKALKFMLTNLKWGLAWVSSQFYNK
As to B1, in the series with HL-1 cells [1], the modulation of autophagy entry is recorded as “stimulates autophagy”. The protection result with HL-1 cells [2] is listed as “protection in cell culture”.

B2: Atg5^K130R: dominant negative point mutant of Atg5 delivered by transient transfection in HL-1 cells (protein, UniProt Q9H1Y0 1-275, looked up, variant K130R)
Autophagy protein 5: MTDDKDVLRDVWFGRIPTCFTLYQDEITEREAEPYYLLLPRVSYLTLVTDKVKKHFQKVMRQEDISEIWFEYEGTPLKWHYPIGLLFDLLASSSALPWNITVHFKSFPEKDLLHCPSKDAIEAHFMSCMREADALKHKSQVINEMQKKDHKQLWMGLQNDRFDQFWAINRKLMEYPAEENGFRYIPFRIYQTTTERPFIQKLFRPVAADGQLHTLGDLLKEVCPSAIDPEDGEKKNQVMIHGIEPMLETPLQWLSEHLSYPDNFLHISIIPQPTD
modifications: mCherry fusion
notes: dominant negative point mutant of Atg5 delivered by transient transfection in HL-1 cells
In the case of B2, the autophagy entry in the series with HL-1 cells [1] (transient transfection, co-transfected with GFP-LC3 (FIG. 6)) is given as “effectively suppressed autophagy”. Also, the “effect on autophagy in the second window of protection” value with HL-1 cells [1] (with CCPA 10 min, washout, 20-24 hr later) is recorded as “suppressed autophagy in the second window of protection”. In addition, the “effect on cytoprotection by CCPA (LDH release)” value in the series with HL-1 cells [3] (inhibitor plus CCPA, then sI/R (2 hr sI, 3 hr R)) is listed as “eliminated the protective effects of CCPA after sI/R”. Also, the “effect on cytoprotection by CCPA in the second window of protection (LDH release)” value in the series with HL-1 cells [3] (with CCPA 10 min, washout, sI/R 20-24 hr later) is recorded as “abolished the cytoprotective effect of CCPA”.

B3: Tat-Atg5^K130R: Atg5^K130R expressed as a fusion protein with the protein transduction domain derived from HIV Tat; cell-permeable dominant negative inhibitor of autophagy (protein)
chain: MRGSHHHHHHGMASMTGGQQMGRDLYDDDDKDRWGSKLGYGRKKRRQRRRGGSTMSGYPYDVPDYAGSMAGTMTDDKDVLRDVWFGRIPTCFTLYQDEITEREAEPYYLLLPRVSYLTLVTDKVKKHFQKVMRQEDVSEIWFEYEGTPLKWHYPIGLLFDLLASSSALPWNITVHFKSFPEKDLLHCPSKDAVEAHFMSCMREADALKHKSQVINEMQKKDHKQLWMGLQNDRFDQFWAINRKLMEYPPEENGFRYIPFRIYQTTTERPFIQKLFRPVAADGQLHTLGDLLREVCPSAVAPEDGEKRSQVMIHGIEPMLETPLQWLSEHLSYPDNFLHISIVPQPTD
modifications: synthetic peptide or nucleic acid
With B3, the modulation of autophagy entry with HL-1 cells [1] was “inhibits autophagy”. In addition, the effect on autophagy result in the series with adult rat cardiomyocytes [4] is recorded as “suppressed autophagy”. For the same molecule, the “effect on protection by sulfaphenazole given at reperfusion (infarct size)” value in series [5] (FIG. 17, 3 hearts per condition) is given as “protection is lost”. For the same molecule, the infarct size was 42.0% in series [5] (absence of SUL, vehicle control 38.5%, p=NS) and 30 % of the area at risk in series [5] (pretreatment with Tat-Atg5^K130R, then SUL infusion). In addition, in series [6], the “effect on autophagy induced by SUL (LC3-II/I ratio, cadaverine dye binding)” value is listed as “potently suppressed autophagy induced by SUL”. Moreover, the “effect on protection by CCPA (LDH release)” value in the series on adult rat cardiomyocytes [7] (Tat protein 30 min before CCPA, then simulated ischemia) is listed as “eliminated the protection by CCPA”. Moreover, the “LDH release under normoxic conditions” value in the series with adult rat cardiomyocytes [7] (absence of CCPA, normoxia) was “did not increase LDH release”. Moreover, the “injury from sI/R” value in the series on adult rat cardiomyocytes [7] (absence of CCPA, sI/R) is listed as “nor did it exacerbate injury from sI/R”.
